Consider one substance from patent publication US7829109B2, “Catheter injectable depot compositions and uses thereof” (Durect Corporation, priority 2001, dated 2010).

The nature of data set [1]: Preliminary stability of PDGF preformulations in the gel vehicle (SEC, rpHPLC). It is filed as physicochemical. Conditions: mixed into gel vehicle PLGA RG502/BB/BA 40/45/15, stored at 5° C. for 1 day. As to the method: All lyophilized protein formulations as listed in Tables 8 and 9, were mixed into a gel vehicle with the composition of PLGA RG502/Benzyl Benzoate (BB)/benzyl alcohol (BA) of 40/45/15 with the loading of the protein formulation about 10 wt %. After being stored at 5° C. for 1 day, the mixtures were extracted with an organic solvent mixture of methylene chloride and acetone (ratio of 50/50) as described in the example 15 above. The purity of the PDGF-BB was analyzed by both reverse phase HPLC (rpHPLC) and size exclusion chromatography (SEC). In general, no distinguishable degradation of the PDGF-BB was found in the PDGF-BB formulation incorporated with the excipients as described in the example 18 and mixed with the gel vehicle of the present invention.

The nature of data set [2]: Stability of PDGF in the depot formulations (rpHPLC, SEC). It is filed as physicochemical. Conditions: day 0. As to the method: Depot gel PDGF formulations were stored for different periods of time at 5, 25 and 40° C., respectively. At predetermined time points, the depot gel PDGF-BB formulation (0.3 ml) was treated with a cooled organic solvent (a 50/50 mixture of methylene chloride/acetone, at 5° C., 3×3.0 ml). The resulting residual PDGF-BB was dissolved in a PBS buffer (2 ml, pH 7.4) and the purity of the PDGF was analyzed by both reverse phase HPLC (rpHPLC) and size exclusion chromatography (SEC) HPLC. FIGS. 18-20 illustrate the stability of PDGF (% monomer by SEC) in the various depot formulations, including those of the present invention, as a function of time at 5° C. (FIG. 18), 25° C. (FIG. 19) and 40° C. (FIG. 20), respectively. Table 12 summarizes the chemical stability of PDGF tested by rpHPLC in the various depot formulations, including those of the present invention, as a function of time at 5° C., 25° C. and 40° C., respectively. […] Sucrose has a significant stabilizing effect on the various depot formulations of the present invention.

In the case of “Bulk PDGF: PDGF-BB bulk solution, i.e., aqueous solution of PDGF in acetate buffer”, in data set [1], the “% PDGF dimer by SEC” value stood at 0.73%, the “% PDGF monomer by SEC” value was 99.27%, the “% other peaks by rp-HPLC” value worked out at 0.0% and the “% peak at RRT = 0.93 by rp-HPLC” value is 11.1%. For the same substance, in data set [1], the “% peak at RRT = 1.00 by rp-HPLC” value is 87.7% and the “% peak at RRT = 1.10 by rp-HPLC” value came to 1.2%. In data set [2], the “RP-HPLC Other Peak(s)” value was found to be 0 % Peak Area, the “RP-HPLC Peak at (RRT = 0.93)” value amounted to 11.1 % Peak Area, the “RP-HPLC Peak at (RRT = 1.00)” value is on record as 87.7 % Peak Area and the “RP-HPLC Peak at (RRT = 1.09)” value is listed as 1.2 % Peak Area.
